In US20220317133A1 (NORDIC BIOSCIENCE A S, published 2022):

Key:
[1] = target: T1, KPGVISVMGT, last 10 amino acids of the type VI collagen α3 chain (selection / immunogenic peptide); assay: screening of hybridoma cell lines against peptides
T1 construct: also called PRO-C6
T1 peptide: KPGVISVMGT
Protocol: (§1) Mouse spleen cells were fused with SP2/0 myeloma fusion partner cells. The fusion cells were raised in 96-well plates and incubated in the CO2-incubator. Here standard limited dilution was used to promote monoclonal growth. Cell lines specific to the selection peptide and without cross-reactivity to either elongated peptide ([…] (SEQ ID No: 2), Chinese Peptide Company, China) or truncated peptide ([…] (SEQ ID No: 3), American Peptide Company, USA) were selected and sub-cloned. At last the antibodies were purified using an IgG column.

[2] = target: T2, truncated peptide KPGVISVMG; assay: screening of hybridoma cell lines against peptides
T2 peptide: KPGVISVMG
Protocol: as §1

[3] = target: T3, elongated peptide KPGVISVMGTA; assay: screening of hybridoma cell lines against peptides
T3 peptide: KPGVISVMGTA
Protocol: as §1

[4] = target: T4, CPTGPQNYSP, C-terminal neo-epitope sequence of the α1 chain PIIINP (free calibrator peptide); assay: hybridoma screening, indirect ELISA on streptavidin-coated plates with the free peptide as calibrator
T4 construct: also called PRO-C3
T4 peptide: CPTGPQNYSP
Protocol: A monoclonal antibody specific for Pro-C3 was developed as described in WO 2014/170312 (Nordic Bioscience, incorporated herein by reference) using sequence 145′-[…]-′153 (SEQ ID No: 14) of the α1 chain PIIINP as an immunogenic peptide. Briefly, generation of monoclonal antibodies was initiated by subcutaneous immunization of 4-5 week old Balb/C mice with 200 μl emulsified antigen and 50 μg PIIINP neo-epitope C-terminus sequence (OVA-CGG-[…] (SEQ ID No: 32)) using Freund's incomplete adjuvant. The immunizations were repeated every 2 weeks until stable serum titer levels were reached. The spleen cells were fused with SP2/0 myeloma cells to produce hybridoma, and cloned in culture dishes using the semi-medium method. The supernatants were screened for reactivity against calibrator peptide and native material in an indirect ELISA using streptavidin-coated plates. Biotin-CGG-[…] (SEQ ID No: 33) was used as screening peptide, while the free peptide […] (SEQ ID No: 14) was used as calibrator to test for further specificity of clones.

B1: monoclonal antibody specific for Pro-C6 (monoclonal antibody 10A3) (antibody, mouse IgG1, kappa, V domains shown)
VH: EVQLQQSGPVMVKPGTSVKTSCKASGYTFTDFNMNWVKQSHGKSLEWIGAINPHNGATSYNQKFSGKATLTVDKSSSTAYMELNSLTSDDSAVYYCARWGNGKNSWGQGTTLTVSS
VL: DVVMTQTPLSLPVNLGDQASISCRSSQRIVHSNGITFLEWYLQKPGQSPKLLIYRVSNRFSGVPDRFSGSGSGTDFTLKISRVEAEDLGLYYCFQGSHVPLTFGAGTRLELKR
notes: Mouse IgG1 / kappa from a hybridoma; the antibodies were purified on an IgG column afterwards; also called PRO-C6 antibody
[1]
  binding result: binds
[2]
  binding result: no binding
[3]
  binding result: no binding

B2: monoclonal antibody specific for Pro-C3 (monoclonal antibody NB61N-62) (antibody, V domains shown)
VH: EVQLQQSGPEVLKPGASVKMSCKASGYTFINYVIHWLKQKAGQGPEWIGYMNPYNDVPKNNAKFRGKARLTSDRSSTTAYMELNSLTSEDSAVYYCARGGFFGPLSYWGQGTLVTVSA
VL: DVLMTQTPLSLSVSLGDQASISCRSSQNIVYSNGDTYFEWYLQKPGQSPKLLIYKVSQRFSGVPDRFSGSGSGTDFTLKISRVETEDLGVYYCFQGAHDPPAFGGGTKLELKR
notes: Mouse IgG2A / kappa; also called PRO-C3 antibody
[4]
  binding result: binds
